Measured values: the supplement of paper PMC9170038

Key:
MS2 coat protein [1] = test: apparent KD of MS2 coat protein, switch OFF state (with FMN for OFF switches, without FMN for ON switches); designed switch direction (-1 OFF switch, 1 ON switch): -1; higher = weaker reporter binding; settings: FMN input: 0 or 200 uM; Eterna round: R93 (includes R88 designs)
Procedure, shortened: (§1)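 Designed RNA switches were transcribed on-chip from Illumina sequencing clusters. They were then titrated with SNAP-549-labelled MS2 coat protein (twofold steps, 0.7 or 1.5 nM to 3 µM; 0.8–1.5 h to 10–20 min per step) in 100 mM Tris-HCl pH 7.5, 80 mM KCl, 4 mM MgCl2, without or with constant ligand. Apparent KD is the per-design median of normalised cluster binding-curve fits.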

MS2 coat protein [2] = test: apparent KD of MS2 coat protein, switch ON state; designed switch direction (-1 OFF switch, 1 ON switch): -1; higher = weaker reporter binding; settings: FMN input: 0 or 200 uM; Eterna round: R93 (includes R88 designs)
Procedure, shortened: as §1

| Sequence | apparent KD of MS2 coat protein (MS2 coat protein [1]) [nM] | apparent KD of MS2 coat protein (MS2 coat protein [2]) [nM] |
| --- | --- | --- |
| AAAGGAUCAGGAUAUGUGUGGAAAAAGUGUAUCCGAAAAAAACAUGAGGAUCACCCAUGUAGAAGGGAUCCAAA [Mod 3 of Normal (20/19) by Nando, Round 1] | 464 | 182 |
| AAAGGCUUAGGAUAUACAGUGGUCCCAAUGGGCAUCCGAAAACAUGAGGAUCACCCAUGUAGAAGGAAGAAAAU [Raleor] | 64.7 | 68.5 |
| AAAUAGCAAGGAUAUACAUGAGGAUCACCCAUGUAAGGAUGGAAAGUAAUAGAAGAAAGUAGAAGGUGCAAAUA [Ex 3 Tesla 4] | 36 | 31.7 |
| AAAUAGCAAGGAUAUACAUGAGGAUCACCCAUGUGAAAAAGGUAUGGAAUAGAAUAGAGUAGAAGGUGCAAAUA [Mod of Ex 3 Tesla 8 - Jieux - Exclusion 3] | 35.7 | 24.9 |
| AAAUAGCAAGGAUAUACAUGAGGAUCACCCAUGUGAAAAUGAUACGUAAUAGAAUAGAGUAGAAGGUGCAAAUA [Ex 3 Tesla 7] | 28.7 | 25.1 |
| AAAUAGUUAGGAUAUACAUGAGGAUCACCCAUGUGCACGUAUGGAGAAUAUGGUAAUGGUAGAAGGGACUAAAA [EX2 Malc#21] | 76.5 | 44.5 |
| AAAUGAUGAGGAUAUACAUGAGGAUCACCCAUGUGUAAAAAUAAAUACACAAAAGAAAGUAGAAGGCAUCAAAA [Ex 3 May 12] | 99 | 22.7 |
| AAAUGCUGAGGAUAUACAUGAGGAUCACCCAUGUAAAAUAAAUAAUAGGUGUAAACGUGUAGAAGGCAGCAUAA [Exclusion 3.14a (FMN+ favored )] | 27.5 | 62.6 |
| AAAUUAGCAGGAUAUACUAGGGUCCACCGAACUCUGAAAAGACAUGAGGAUCACCCAUGUAGAAGGGCUUCGAA [Atileso] | 97.6 | 30 |
| AACAAGACAGGAUAUACAUGAGGAUCACCCAUGUGAGAAUAAAGUAGCGUAACACAAAGUAGAAGGGUCAUGGA [Ruby 7] | 57.6 | 29.7 |
| AACAAGUGAGGAUAUCGGAAAAGAAAAUAAGAUACACAAAACGAGAAGGCACAUGAGGAUCACCCAUGUAAAUA [JR_Exc004_Sub012] | 41.5 | 35.9 |
| AACAGCACAGGAUAUACAUGAGGAUCACCCAUGUGAGAAUUAAGUGGCGUACCACAAAGUAGAAGGGUGCUGGA [Mat - Exclusion 3 - JL mod - D39] | 203 | 35.9 |
| AACAGGACAGGAUAUACAUGAGGAUCACCCAUGUAGGAACAAAGCAGAGUACCAAACAGUAGAAGGGUCAUGGA [Ruby 28] | 37.2 | 34.2 |
| AACAGGACAGGAUAUACAUGAGGAUCACCCAUGUGAAGAUUAAGAAGAAAACCACAAAGUAGAAGGGUCCUGGA [Ruby 94] | 79.2 | 35.1 |
| AACAGGUCAGGAUAUGUGGAAAAAAUAAAAAAAAUAAAAACACAGAAGGGACAUGAGGAUCACCCAUGUUAACA [May 25] | 38.8 | 36.6 |
| AACAGUACAGGAUAUACAUGAGGAUCACCCAUGUAAAAUAAAUAAAAAUAAAAAGGGAGUAGAAGGGUACUGGA [Moding Maslow revisited (73) 19] | 50.3 | 37.2 |
| AACAGUACAGGAUAUACAUGAGGAUCACCCAUGUGAAAAUUAAGUGGAAAACCACAAGGUAGAAGGGUACUGGA [Mat - Exclusion 3 - Eli mod - D63] | 78.7 | 21.6 |
| AACAGUACAGGAUAUACAUGAGGAUCACCCAUGUGAAAAUUAAGUGGCGAACCACAAAGUAGAAGGGUACUGAA [Mat - Exclusion 3 - Eli mod - D56] | 79.3 | 38.7 |
| AACAGUACAGGAUAUACAUGAGGAUCACCCAUGUGAAAUAAAAGUGGCGUACCACAAAGUAGAAGGGUACUGAA [Mat - Exclusion 3 - JL mod - D27] | 90.5 | 27.1 |
| AACAGUACAGGAUAUACAUGAGGAUCACCCAUGUGAGAAUUAAGUGGAGAACCACAAAGUAGAAGGGUACUGGA [Mat - Exclusion 3 - JL mod - D2] | 250 | 37.1 |

| Sequence | apparent KD of MS2 coat protein (MS2 coat protein [1]) [nM] | apparent KD of MS2 coat protein (MS2 coat protein [2]) [nM] |
| --- | --- | --- |
| AACAGUACAGGAUAUACAUGAGGAUCACCCAUGUGGGAAUUAAGUGGCGUACCACAAAGUAGAAGGGUACUGGA [Moding Maslow revisited (73)] | 172 | 72.5 |
| AACAUGUUAGGAUAUCUAAGAAAAGAAAAGAAAGAAAAGAAAGAGAAGGAACAUGAGGAUCACCCAUGUAAGAA [EteRNA is fun!] | 22.1 | 30.1 |
| AACAUGUUAGGAUAUUGAAGAAAAGAAAAGAAAGAAAAGAACAAGAAGGAACAUGAGGAUCACCCAUGUAAGAA [EteRNA is fun!] | 17.2 | 25 |
| AACGAACAUGAGGAUCACCCAUGUCAGGAUAUGCGAAGAACGAUCGAACAAACGAUAAGCAGAAGGGACAGAGA [Amethyst 98] | 50 | 25.1 |
| AACGAGUCAGGAUAUACAAAAAGUAAAUAAGUAAAACCAAAGUAGAAGGGACAUGAGGAUCACCCAUGUAAAUA [JR_Exc004_Sub019] | 24.4 | 42.8 |
| AACUGACAUGAGGAUCACCCAUGUCAGGAUAUGACAUCGAAAAAAAAAAAAAUCGUUGUCAGAAGGGACAUGGA [Design 74: Sub-opt R] | 32.5 | 20.9 |
| AACUGACAUGAGGAUCACCCAUGUCAGGAUAUGCUUCUAGGAAAAAAAAAAACUAGAUGCAGAAGGGAUAUGGA [Design 37 :P Sub-opt 13] | 12.1 | 14.5 |
| AAGAAACAUGAGGAUCACCCAUGUAAGGAUAUGAAAAAGAAAAGAAAAGAAAGAAGAAUCAGAAGGUACAAAGG [Nakhtnebtepnefer Intef III] | 26.1 | 24.1 |
| AAGAAACAUGAGGAUCACCCAUGUCAGGAUAUGCAGGACUGACGAAAGUCAGUCCAAAGCAGAAGGGACUAGAA [8-pair stack] | 56.5 | 29.9 |
| AAGAAACAUGAGGAUCACCCAUGUCAGGAUAUGUAAAAGAAAAGAAAAGAAAGAAGAAACAGAAGGGACAAAGG [Neferkaure] | 126 | 83.9 |
| AAGAAAGCAGGAUAUACAUGAGGAUCACCCAUGUAAAAGAAAGAAAAGGGAAAGAAAAGUAGAAGGGCUAAGAA [User/Heqamaatre-setpenamun Ramesses IV] | 74.1 | 27.2 |
| AAGAAAGCAGGAUAUACAUGAGGAUCACCCAUGUAAAAGAAAGAGGGAAAAGAGAAAAGUAGAAGGGCUAAGAA [Cleopatra IV] | 33.8 | 37.3 |
| AAGAAAGGAGGAUAUACAUGAGGAUCACCCAUGUAAAAGAAAGAAGGGAAAGAGAAAAGUAGAAGGCCUAAGAA [Wahibre Psamtik I] | 31 | 32.7 |
| AAGAAAGUAGGAUAUACAAGGAAGAAAGAAAAGAAAAGAAAACAUGAGGAUCACCCAUGUAGAAGGACUUAGAA [EteRNA is fun!] | 18.7 | 27.5 |
| AAGAACCAAGGAUAUACAUGAGGAUCACCCAUGUAAAAGAAAGAAAGGGAAAAGAAAAGUAGAAGGUGGAAGAA [Takelot I] | 32.8 | 28.1 |
| AAGAACGCAGGAUAUACAUGAAAGAAAGAAAAGAAAAGAAAACAUGAGGAUCACCCAUGUAGAAGGGCGAAGAA [EteRNA is fun!] | 39.6 | 37.9 |
| AAGAACUGAGGAUAUACAAAAGAAAAGAAAAGAAAGAAAGAACAUGAGGAUCACCCAUGUAGAAGGCGGAAGAA [Khahotepre Sobekhotep VI] | 14.7 | 31.5 |
| AAGAACUGAGGAUAUACAUAAUAAAAGAAAAGAAACAAAGAACAUGAGGAUCACCCAUGUAGAAGGCGGAAGAA [Menwadjre Sihathor] | 20.7 | 29.4 |
| AAGAAGACAGGAUAUACAUGAGGAUCACCCAUGUAAAAGAAAGAAAAGGGAAAGAAAAGUAGAAGGGUCAAGAA [Menkheperure Thutmose IV] | 36.8 | 39.6 |
| AAGAAGAGAGGAUAUACAUGAGGAUCACCCAUGUAAAAGAAAGAAGGGAAAGAGAAAAGUAGAAGGCUCAAGAA [Usermaatre-setpenamun Rudamun] | 31 | 25.6 |
